Reference: patent US20040191303A1, “Use of selectin-binding pregnancy proteins, liposomes, native mucin fragments and mimetic compounds for the treatment and prophylaxis inflammatory diseases, for preventing metastatic spread and for the prophylaxis of tumour diseases” (priority 2000, published 2004)

B1: Amniotic ✓-fetoprotein: α-fetoprotein from the amniotic fluid (protein, UniProt P02771 19-609, looked up)
Alpha-fetoprotein: RTLHRNEYGIASILDSYQCTAEISLADLATIFFAQFVQEATYKEVSKMVKDALTAIEKPTGDEQSSGCLENQLPAFLEELCHEKEILEKYGHSDCCSQSEEGRHNCFLAHKKPTPASIPLFQVPEPVTSCEAYEEDRETFMNKFIYEIARRHPFLYAPTILLWAARYDKIIPSCCKAENAVECFQTKAATVTKELRESSLLNQHACAVMKNFGTRTFQAITVTKLSQKFTKVNFTEIQKLVLDVAHVHEHCCRGDVLDCLQDGEKIMSYICSQQDTLSNKITECCKLTTLERGQCIIHAENDEKPEGLSPNLNRFLGDRDFNQFSSGEKNIFLASFVHEYSRRHPQLAVSVILRVAKGYQELLEKCFQTENPLECQDKGEEELQKYIQESQALAKRSCGLFQKLGEYYLQNAFLVAYTKKAPQLTSSELMAITRKMAATAATCCQLSEDKLLACGEGAADIIIGHLCIRHEMTPVNPGVGQCCTSSYANRRPCFSSLVVDETYVPPAFSDDKFIFHKDLCQAQGVALQTMKQEFLINLVKQKPQITEEQLEAVIADFSGLLEKCCQGQEQEVCFAEEGQKLISKTRAALGV
B2: Urinary ✓-fetoprotein: α-fetoprotein from urine (protein, UniProt P02771 19-609, looked up)
Alpha-fetoprotein: RTLHRNEYGIASILDSYQCTAEISLADLATIFFAQFVQEATYKEVSKMVKDALTAIEKPTGDEQSSGCLENQLPAFLEELCHEKEILEKYGHSDCCSQSEEGRHNCFLAHKKPTPASIPLFQVPEPVTSCEAYEEDRETFMNKFIYEIARRHPFLYAPTILLWAARYDKIIPSCCKAENAVECFQTKAATVTKELRESSLLNQHACAVMKNFGTRTFQAITVTKLSQKFTKVNFTEIQKLVLDVAHVHEHCCRGDVLDCLQDGEKIMSYICSQQDTLSNKITECCKLTTLERGQCIIHAENDEKPEGLSPNLNRFLGDRDFNQFSSGEKNIFLASFVHEYSRRHPQLAVSVILRVAKGYQELLEKCFQTENPLECQDKGEEELQKYIQESQALAKRSCGLFQKLGEYYLQNAFLVAYTKKAPQLTSSELMAITRKMAATAATCCQLSEDKLLACGEGAADIIIGHLCIRHEMTPVNPGVGQCCTSSYANRRPCFSSLVVDETYVPPAFSDDKFIFHKDLCQAQGVALQTMKQEFLINLVKQKPQITEEQLEAVIADFSGLLEKCCQGQEQEVCFAEEGQKLISKTRAALGV
B3: Serum ✓-fetoprotein: α-fetoprotein from the serum of pregnant women (protein, UniProt P02771 19-609, looked up)
Alpha-fetoprotein: RTLHRNEYGIASILDSYQCTAEISLADLATIFFAQFVQEATYKEVSKMVKDALTAIEKPTGDEQSSGCLENQLPAFLEELCHEKEILEKYGHSDCCSQSEEGRHNCFLAHKKPTPASIPLFQVPEPVTSCEAYEEDRETFMNKFIYEIARRHPFLYAPTILLWAARYDKIIPSCCKAENAVECFQTKAATVTKELRESSLLNQHACAVMKNFGTRTFQAITVTKLSQKFTKVNFTEIQKLVLDVAHVHEHCCRGDVLDCLQDGEKIMSYICSQQDTLSNKITECCKLTTLERGQCIIHAENDEKPEGLSPNLNRFLGDRDFNQFSSGEKNIFLASFVHEYSRRHPQLAVSVILRVAKGYQELLEKCFQTENPLECQDKGEEELQKYIQESQALAKRSCGLFQKLGEYYLQNAFLVAYTKKAPQLTSSELMAITRKMAATAATCCQLSEDKLLACGEGAADIIIGHLCIRHEMTPVNPGVGQCCTSSYANRRPCFSSLVVDETYVPPAFSDDKFIFHKDLCQAQGVALQTMKQEFLINLVKQKPQITEEQLEAVIADFSGLLEKCCQGQEQEVCFAEEGQKLISKTRAALGV
B4: Serum PP14: gestation protein pp14 from serum of pregnant women (protein, UniProt P09466 19-180, looked up)
Glycodelin: MDIPQTKQDLELPKLAGTWHSMAMATNNISLMATLKAPLRVHITSLLPTPEDNLEIVLHRWENNSCVEKKVLGEKTENPKKFKINYTVANEATLLDTDYDNFLFLCLQDTTTPIQSMMCQYLARVLVEDDEIMQGFIRAFRPLPRHLWYLLDLKQMEEPCRF
B5: Urinary PP14: gestation protein pp14 from urine of pregnant women (protein, UniProt P09466 19-180, looked up)
Glycodelin: MDIPQTKQDLELPKLAGTWHSMAMATNNISLMATLKAPLRVHITSLLPTPEDNLEIVLHRWENNSCVEKKVLGEKTENPKKFKINYTVANEATLLDTDYDNFLFLCLQDTTTPIQSMMCQYLARVLVEDDEIMQGFIRAFRPLPRHLWYLLDLKQMEEPCRF

test system: activated HUVEC; experiment: Adhesion inhibition test: HepG2 hepatoma cells to IL-1β activated HUVEC; assay type: cell-based, human; details: HepG2 cell adhesion
Procedure: The adhesion test described below is used in vitro to test the active substances.
HUVECs are isolated from veins of fresh human umbilical cords, used up to the 3rd passage, and cultured to confluence in 96-well titer plates for testing. Expression on HUVEC is induced by adding 0.2 ng of IL-1β per well, reaching its maximum after 4 hours. At this point, an adhesion test/adhesion inhibition test analogous to the one for immobilized E-selectin is performed.
The IC50 values (concentration of inhibiting agent for 50% inhibition of adhesion) are indicated.

Molecule | IC50
sialyl-Lewis x [sLe^x] | 2300 µM

test system: cell adhesion; experiment: Testing of gestation proteins from various sources as adhesion blocker; assay type: cell-based; details: not given
Text: Testing of Gestation Proteins from Various Sources as Adhesion Blocker
The trophoblast culture line has been purchased and not subjected to genetic engineering.

Molecule | Adhesion blocking
Serum Transferrin: transferrin from serum | No
Amniotic transferrin: transferrin recovered from the amniotic fluid | Yes
B1 | Yes
B2 | No
B3 | Yes
B4 | Yes
B5 | Yes
